The values that follow are results of earlier work, collected in PMC12394151.

This data set has as its target IL-6R (Homo sapiens) (UniProt P08887). The data set can be described thus: BLI. To be noted: cited from earlier work.

Chain of IL-6R (Homo sapiens) (P08887 20-355): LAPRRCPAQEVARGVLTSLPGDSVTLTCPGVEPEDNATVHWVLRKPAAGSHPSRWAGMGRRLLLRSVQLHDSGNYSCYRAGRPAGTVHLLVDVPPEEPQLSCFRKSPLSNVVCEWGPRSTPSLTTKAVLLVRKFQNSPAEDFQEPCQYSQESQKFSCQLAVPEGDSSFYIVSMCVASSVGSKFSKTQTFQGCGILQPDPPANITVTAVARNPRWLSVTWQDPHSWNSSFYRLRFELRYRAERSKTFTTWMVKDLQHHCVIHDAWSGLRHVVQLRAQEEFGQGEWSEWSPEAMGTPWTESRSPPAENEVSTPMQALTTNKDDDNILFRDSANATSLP

As a reminder, the Kd is a measure of binding affinity in units of concentration. Consider Tocilizumab, for which the Kd was 38.8 nM.
